Source: patent US20110038791

Experiments:
[1] = system: Six1, near full-length (natural degradation product ending at residue 259); assay: FP; conditions: 28 kD Six1 with 10 kD fluorescein DNA, single cuvette
[2] = system: Six1 + Eya2 Eya domain (ED) complex; assay: FP; conditions: DMSO no effect
[3] = system: Six1 + Eya2 Eya domain (ED) complex; assay: EMSA; conditions: addition of Eya ED increases affinity
[4] = target: T1, Six1, full-length (UniProt Q15475); assay: EMSA; conditions: Six1 alone
T1 sequence: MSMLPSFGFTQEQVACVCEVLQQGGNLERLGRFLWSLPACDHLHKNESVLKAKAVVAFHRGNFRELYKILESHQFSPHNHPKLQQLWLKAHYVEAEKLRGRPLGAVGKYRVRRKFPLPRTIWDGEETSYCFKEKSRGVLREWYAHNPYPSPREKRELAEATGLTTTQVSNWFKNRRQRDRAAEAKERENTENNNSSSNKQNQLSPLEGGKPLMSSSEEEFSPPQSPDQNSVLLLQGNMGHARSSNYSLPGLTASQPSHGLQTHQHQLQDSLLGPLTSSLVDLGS

[5] = system: Six1, near full-length (natural degradation product ending at residue 259); assay: EMSA; conditions: preliminary estimate

For 5'-fluorescein 16 nt MEF3 dsDNA, the binding (fold increase in polarization) [1] was > 4 and the binding (fold increase in anisotropy) [2] was 3.

18 nt dsDNA containing MEF3 site gave a Kd [3] of 0.3 µM and a Kd [4] of 1 µM.

Work on 16 nt DNA containing MEF3 motif yielded a Kd [5] of 1 µM.
